The target in assay [1] is T1, NfL-His重组蛋白 (神经丝轻链蛋白, Neurofilament light chain) (Homo sapiens (Human), UniProt P07196 1-543).
T1 construct: Recombinant, expressed in 293F cells, C-terminal His tag; used as immunogen, sorting antigen and screening antigen; also called NfL-His蛋白
T1 sequence: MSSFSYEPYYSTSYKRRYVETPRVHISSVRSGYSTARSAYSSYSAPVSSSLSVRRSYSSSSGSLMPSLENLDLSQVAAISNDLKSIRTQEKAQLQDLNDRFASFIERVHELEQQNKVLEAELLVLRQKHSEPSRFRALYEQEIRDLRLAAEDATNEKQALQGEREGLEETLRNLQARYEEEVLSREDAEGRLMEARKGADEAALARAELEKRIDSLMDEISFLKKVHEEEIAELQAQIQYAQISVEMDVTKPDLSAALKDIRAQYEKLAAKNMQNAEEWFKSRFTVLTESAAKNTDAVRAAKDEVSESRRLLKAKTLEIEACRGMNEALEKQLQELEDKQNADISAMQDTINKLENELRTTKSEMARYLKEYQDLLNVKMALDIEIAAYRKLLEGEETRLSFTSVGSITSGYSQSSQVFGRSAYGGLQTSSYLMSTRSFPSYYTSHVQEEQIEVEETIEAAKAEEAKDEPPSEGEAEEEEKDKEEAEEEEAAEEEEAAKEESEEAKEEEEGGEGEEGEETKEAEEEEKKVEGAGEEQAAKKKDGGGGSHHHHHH
As to the kind of experiment: sandwich chemiluminescence, NfL at 10000pg/mL, Rabbit anti-NfL mAb on beads as capture, acridinium ester labelled antibody as detection.

The target of assay [2] is T1, NfL-His重组蛋白 (神经丝轻链蛋白, Neurofilament …). Put plainly: sandwich ELISA, fixed antibody of the pair.

B1: Anti-NfL-rRmab-1 (antibody, V domains shown)
VH: QSVEESGGRLVTPGTPLTLTCTASGFSLSIHDMSWVRQAPGKGLEWIGLISSNNNTYYASWAKGRFTISKTSTTVDLKITSPTTEDTATYFCARGGFSTDLWGPGTPVTVSS
VL: DVVMTQTPASVSEPVGGTVTIKCQASQSIYTYLSWYQQKPGQPPKLLIYGASNLASGVSSRFKGSGSGTDYTLTISGVQCDDAATYYCQCTYFSSSYVGGFGGGTEVVVK
notes: Labelled with acridinium ester as the detection antibody in the chemiluminescence assay; also called NfL特异性抗体; 优选抗体
With B1, the binding result in assay [1] is recorded as “binds”.

B2: Rabbit anti-NfL mAb (antibody, V domains shown)
VH: QSVEESGGRLVTPGTPLTLTCTASGIDLSNYAMNWVHQAPGKGLEWIAIIYASGSTYYTTWAKGRFTISKTSSTTVDLKITSPTTEDTATYFCARALSMTNVYTFNIWGPGTLVTVSS
VL: DVVMTQTPASVSEPVGGTVTIKCQASQNIYNNLAWYQQKPGQPPKLLIYKASTLASGVSSRFKGSGSGTEFTLTISDLECADAATYYCQCTYGSSYVAFGGGTEVVVK
notes: Rabbit monoclonal antibody developed earlier by the applicant; Used as the fixed capture antibody (coupled to magnetic beads in the chemiluminescence assay); also called 包被抗体; 配对抗体
Regarding B2, the binding result in assay [2] is listed as “binds”.

These data come from patent CN117624356A (VAZYME MEDICAL CO LTD; HUNAN NOVAZYME MEDICAL TECH CO LTD, dated 2024).
